The nanobody polyreactivity screen of Harvey et al. (2022)

Test: yeast display, Sf9 membrane polyspecificity reagent, FACS + sequencing; frameworks hold sequencing errors
In short: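 After 36–48 hours of galactose induction, yeast (Saccharomyces cerevisiae BJ5465) displaying a synthetic nanobody library were stained at 4 °C for 1 hour with 10% biotinylated, detergent-solubilized Sf9 membrane reagent. Streptavidin microbeads enriched the stained cells before FACS sorting into low and high (top ~1%) gates on anti-HA and streptavidin fluorescence. Each clone's polyreactivity label reflects its gate of origin.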

QVQLVESGGGLVQAGGSLRLSCAASGFTFYHNAMGWYRQATGKERELVATITARGGRTYYADSVKGRFTISRDNAKNTVYLQMNSLKPVDTAVYYCNVKASRGYTYEYDYWGQGTQVTVSS
polyreactivity (PSR sort gate): high polyreactivity

QVQLVESGAGLVQAGGSLRLSCAASGSTLVTNAMGWYRQAPGKERELVAAITFSGGTTYYADSVKGRFTISRDNAKNTVYLQMNSLKPEDTAVYYCAAEIWLEYVGYDYWGQGTQVTVSS
polyreactivity (PSR sort gate): high polyreactivity

QVQLVESGGGLVQAGGSLRLSCAASGSTFVPYVMGWYRQAPGKERELVAAISKSGTSTYYADSVKGRFTISRDNAKNTVYLQMNCLKPEDTAVYYCAAVARRQVPYDYWGQGTQVTVSS
polyreactivity (PSR sort gate): high polyreactivity

QVQLVESGGGLVQAGGSLRLSCAASGRIFRWYPMGWYRQAPGKESELDATISSTGGSTYYADSVKGRFTISRDNAKNTVYIQMNSLKPEVTAVYYCNAVVYGIFLYAWYDYWGQGTQVTVSS
polyreactivity (PSR sort gate): low polyreactivity

QVQLVESGGGLVQAGVSLRLSCAASGFTFSRYGMGWYRQTPGKERELVAAITWSGGNTNYADSVKGRFTISRDNAKNTVYLQMNSLKPEDTAVYYCNAPRGYWSQSHFDYWGQGTQVNVSS
polyreactivity (PSR sort gate): high polyreactivity

QVQLVESGGGLVQAGGSLRLSCAASGFIFFFYAMGWYSQAPGKERELVASISWNGGSTYYADSVKGRFTISRDNAKNTVYLQMNSLKPEDTAVYYCNKDPVSLWYYSKDYTYDYWGQGTQVTVSS
polyreactivity (PSR sort gate): low polyreactivity

QVQLVESGGGLVQAGGSLRLSCAASGSIFWKNVMGWYRHAPGKERELVAGISQNGGSTTYADSVKGRFTISRDNAKNTVYLQMNSLKPEDTAVYYCAAKRYGPFKYGYWGQGTQVTVSS
polyreactivity (PSR sort gate): high polyreactivity

EVQLVESGGGLVQAGGSLRLSCAASGRIFYTNTMGWYRPAPGKERELVATGSTYYADSVKGRFTISRDNAKNTVYLQMDSLKPEDTAVYYCAKRGDFLTKRYESGSAASDYLGQGTQVTVSS
polyreactivity (PSR sort gate): low polyreactivity

QVQLVESGGGLVQAGGSLRLSCAASGSTLNYYAMAWYRQAPGKEMELVAAITWSGGSTSYADSVKGRFTISRDNAKNTVYLQMNSLKPEDTAVYYCATDFPTVQLYDTDWLSSDMGYWGQGTQVTVSW
polyreactivity (PSR sort gate): low polyreactivity

QVQLVDSGGGLVQAGGSLSLSCAASGRTFYPYAMGWYRQAPGKERELVARISRGGRTNYADSVKGRFTISRDNAKNTVYLQMNSLKPEDTAVYYCAAVYYGSYFITEDYWGQGTQVTVSS
polyreactivity (PSR sort gate): low polyreactivity

QVQLVESGGGLVQAGGSHRLSCAASGITFRRNTMGWYRQAPGKERELVATISWRGGNTFYADSVKGRFTFSRDNAKNTVYLQMNSLKPEDTAVYYCNARGYGTLIVRRERMDYWGQGTQVTVSS
polyreactivity (PSR sort gate): high polyreactivity

QVQLVESGGGLVQAGGSHRLSCAASGFTFWDYAMGWYRKAPGKEREMVAAITSRGTRTYYADSVKGRFTISRDNAKNTVYLQMNSLKPEDTDVYYCATAIPDPDYIHNYWGQGTQVTVSS
polyreactivity (PSR sort gate): high polyreactivity

QVQLVESGGGLVQAGGSLRLSCAASGRTYYGNAMGWYRQAPGKERELVAAITSGGGSTRYADSVKGRFTISRDNAKNTVYLQMNSLKPEDTAVYYCNATLGNFGYRRYSGHTRYYYWGQGTQVTVSS
polyreactivity (PSR sort gate): high polyreactivity

QVQLVESGGGLVQAGGSLRLSCAASGSIFFWYAMGWYRQAPGKVRELVAAISYSGSRTYYSDSVKGRFTISRDNAKNTVYLQMNSLKPEDTAVDYFNVSLYSGAEYDYWGQGTQVTVSS
polyreactivity (PSR sort gate): high polyreactivity

QVQIVESGGGLVQAGGSLRLSCAASGITFHDYAMGWDRQEPGQERELVATIRSSTYYADSVKGRFTISRDTAKNTVYLQMNSLKTEDTAVYYCNVRLSYSYISPSDWNFDYWGQGTQVTVSS
polyreactivity (PSR sort gate): low polyreactivity

QVQLVESVGGLVQAGGSLRLSCAASGRIFRYYAMGWYRQAPGKERELVAAISISGGRTYYADSVKGRFSISRDNAKNTVYLQMNSLKPEDTAVYYCNADPYWYDRDKKYDYWGQGTQVTVSS
polyreactivity (PSR sort gate): high polyreactivity

QVQLVESWGGLVQAGGSLRLSCAASGSTFGKYFMGWYRQAHGKERELVAAISLSGGSTYYADSVKGRFTISRDKAKNTVYLQMNSLKPEDTAVYYCATVGYGYDYWGQGNQVTVSS
polyreactivity (PSR sort gate): high polyreactivity

QVQLVESGGGLVQAGGSLRLSCAASGSTFVYNAMGWYRQAPGKERELVAAISRRGGSTYYADSVKGRFTISRDNAKNTVYLQMNSLKPEDTAVYYCATDRVQDSYYWGQGTQVTVSS
polyreactivity (PSR sort gate): high polyreactivity

QVQLVESGGGLVQAGGSLRLSCAASGRISVRIYAMGWYRQAPGKERELVAIIARSGGSTYYADSVKGRFTISRDNAKHTVYLPMNSLKPADTAVYYCAAGYRTRRGLGYYYWGQGTQVTVSS
polyreactivity (PSR sort gate): high polyreactivity

QVQLVESGGGLVQAGGSLRLSCAASGSIFARYAMGWYRQAPGKERELDAAISGRGGSTYYADSVKGRFTISRDNAKNTVYLQMNSLKPEDTAVYYCNAVGHTSIRRALDILDYWGQGTQVTVSS
polyreactivity (PSR sort gate): high polyreactivity

QVQLVESGGGLVQAGGSLRLSCAASGSIFAVNAMGWYRQAPGKERELVAAISWNGGSTYYADSVKGRFTISRDNAKNTVYLQMNSLKPEDTAVYYCATVRYKYYWSYYRYGYWGQGTQVTVSS
polyreactivity (PSR sort gate): high polyreactivity

QVQLVESGGCLVQAGGSLRLSCAASGSIFNSNAMGWYRPARGKERELVAVISWSDGSTRYADSVKGRFTISRDNAKNTVYLQMHSLKPEDTAVYYCNADLVYYYRQEVDYWGQGTQVTVTS
polyreactivity (PSR sort gate): low polyreactivity

QVQLVESRGGLVQAGGSLRLSCAASGSIFGTNAMGRNRQAPGKERELVAAINSGGSTNYADSVKGRFTISRDNAKNTVYLQMNSLKPEDTAVYYCAADEGLWSPSRNAYDYDYWGQGTQVTVSS
polyreactivity (PSR sort gate): low polyreactivity

QVQLVESGGGLVQAGGSLRLSCAASGRTFGFYVMGWYRQAPGKERELVAAITPGGNTNYADSVKGRFTISRDNAKNSVYLQMNRLKPEDTAVYYCAASPGTIASYEGDFWGQGTQVTVSS
polyreactivity (PSR sort gate): low polyreactivity

QVQLVESGGGLVQAGGSLRLSCAASGSTYIDYAMGWYRQAPGKERELVASIRYSGGGTYYADSVKGRFTISRDNAKNTVYFQMNSLKPEDTAVYYCAKDTHLLNEHSGTSREYDYWGQGTQVTVSS
polyreactivity (PSR sort gate): low polyreactivity

QVQLVESGGGLVQAGGSLRLSCAASGRIFHTYGMGWYRQAPGKVRELVAAITWTGGSTYYADSVKGRFTISRDNAKNTVYLQMNSLKPEDTAVYYCNARYVYHSSFAGFDYWGQGTQVTVSS
polyreactivity (PSR sort gate): low polyreactivity

QVHLVESGVGLVQAGGSLRLSCAAYGYTFTRNAKGWSRQAPGKERELVAAISKRGGTTYYADSVKGRFTISRDNEKYSVYLQMNSLKPEDTAVYYCAKDGGITGGYWGQGTQVTVSS
polyreactivity (PSR sort gate): high polyreactivity

QVQLVESGGGLVQAGGSLRLSCAASGSTLGYYAKGWYRQAPGKERELVATITRSGGNTYYADSVKGRFTISRDNAKNTVYLQMNSLKPEDTAVYYCAARRLYGSQRGYWGQGTQLTVSS
polyreactivity (PSR sort gate): high polyreactivity

QVQLVESCGGLVQAGGSLRLSCAASGRTFGYYAMGWYRQAPGKEREFVAAITAGGGSTYYADSVKGRFTISRDNAKNTVYLQMNSLKPEDTAVYYCAKRDYWGQGTQVTVSS
polyreactivity (PSR sort gate): high polyreactivity

QVQLVESGAGLVQAGGSLRLSCAASGRIFQYNAMGWYRQAPGKERELVAAISYSTTRTYYAESVKSRFTISRDNAKITVYLQMKSLKPEVSGVYYCAARGYFWSSYKYDYWGLGTQVTVSS
polyreactivity (PSR sort gate): high polyreactivity

QVQHVESGGGLLQAGGSLRLSCAASGMGWYRQAPGKERELVAVIRWSSGSTYYADSVKGRFTISRDNAKNTVYLQMNSLKPDDTAVYYCNARDQYYGDPSSQPDTRSRSDYWGQGTQVTVSS
polyreactivity (PSR sort gate): low polyreactivity

QVQLVESGGGLVQAGGSLRLSCAASGSTFRQYAMGWYRQAPGKERELVAGISYRGGRTYYADSVKGRFTISRDNAKNTVYLHMNSLKPEDTAVYYCNALRHYRDISVDGDDYWGQGTQVTVSS
polyreactivity (PSR sort gate): high polyreactivity

QVQLVESGGGLVQAGGSLRLSCAASGFIFDYYAMGWYRPAPAKERELVAAISCRGGTTYYADSVKGRFTISRDNAKNTVYLQMNSLKPEDTAVYYCAAGRFYGFGYGYWGQGTQVTVSS
polyreactivity (PSR sort gate): high polyreactivity

QVQLVESAGGLVQAGGRLRLSCAASGSTFGIYAMGWYRQAPGKERELVAAISSGGSTNYADSVKGRFTISRDNAKNTVYLQMNSLKPEDTAVYYCAVESVYEYGGYVDSAYDYWGQGTQVTVSS
polyreactivity (PSR sort gate): low polyreactivity

QVQLVESGGGLVQAGGSLRLSCAASGSMFVRYAMGWYRQAPGKERELVAAISSDGNTYYADSVKGRFTISRDNAKNTVYLPRNSLKPEDTAVYYCAAKTRSRYYWGQGTQVTVSS
polyreactivity (PSR sort gate): high polyreactivity

QVQLVDSGGGLVQAGGSLRLSCAASGRISSQYAMGWYRQAPGKERELVAAISTSGDRTYYADSVKGRFTISRDNAKNTVYLQMNSLKPEDTAVYYCAKDGPYTYGRDISEYWGQGTQVTVSS
polyreactivity (PSR sort gate): low polyreactivity

QVQLVESGGGLVQAGGSLRLSCAASGINFSFYTMRWYRQAPGIERELVAAISSGGDTYYADSVNGRFTNSRDNAKNTVYLQMNSLKPEVTAVYYCAVDQYDRTTAFCYWYPYYYWGQGTQVTVSS
polyreactivity (PSR sort gate): low polyreactivity

QVQLVESGGGLVQAGGSLRLSCAASGSIFGYYAKGWYRQAPGKERELVAAIDSGGGSTYYADSVRGRVTISRDNAKNTVYIQMNRLKPEDTAVYYCAAVSYSYPSLLYEYWGQGTQVTVSS
polyreactivity (PSR sort gate): low polyreactivity

QVQLVESGGGLVHAGGSLRLSCAASGSIFGWYVMGWYRQAPGKERELVAAISSVGSTYYADSVKGRFTISRDNAKNTVCLQMNSLKPEDTAVYYCAKLRYPYLFWDDSEYWGQGTQVTVSS
polyreactivity (PSR sort gate): low polyreactivity

QVQLVESGGGLVQAGGSLRLSCAASGRIIAVYAMGWYRQAPGKERELVATIRGGGSTNYADSVKGRFTISRDNAKNTVYLQMNSLKPEDTAVYYCAALGGRYRASTYGYWGQGTQVTVSS
polyreactivity (PSR sort gate): high polyreactivity

QVQLVESGGGLVQAGGSLRLSCAASGRILGTYAMGWYRQAPGKERELVAAISGSGGDTYYADSVKGRFTISRDNAKNTVYLQMNSLKPEDTAVYYCAAEVPFTGGFFKYYYWGQGTQVTVSS
polyreactivity (PSR sort gate): low polyreactivity

QVQLQDSGSGLVQAGGSLRLSCAASGAIFPAYLMVSYRQAPGKERELVAGISYGSITYCADSVKGRFNISRDNAKNTVYLQMNSLKPEDTAVYYCAVWRPGGDEYYYWGQGTQVTVSS
polyreactivity (PSR sort gate): low polyreactivity

QVQLVESGGGLVQAGGSLRISCAASGFIFYWNAMGWYRQAPGKERELVAGITSGGDTNYADSVKGRFTISRDNAKNTVYLQINSLKPEDTAVYYCAAEGFRGYGYWGQGTQVTVSS
polyreactivity (PSR sort gate): low polyreactivity
